Assay results reported in patent publication US10279036B2, “Antibody-albumin nanoparticle complexes comprising albumin, bevacizumab, and paclitaxel, and methods of making and using the same” (Mayo Foundation for Medical Education and Research, priority 2012, dated 2019).
pKd: −log10 of the molar value. Like-named read-outs stand apart in the source and are kept apart here.

Assays:
human serum albumin = target: T1, human serum albumin (Homo sapiens, UniProt P02768); assay: Association and dissociation of AVASTIN with human serum albumin (streptavidin sensor); assay type: binding; details: read-out: dissociation constant
T1 construct: purchased
Description: (§1) The association and dissociation of AVASTIN® with human serum albumin and ABRAXANE® were determined. In this experiment, biotinylated AVASTIN® was bound to a streptavidin sensor. After AVASTIN® loading to the sensor, the sensor was exposed to either 1 mg/mL of human serum albumin or 1 mg/mL of ABRAXANE®. […] The dissociation constants were calculated to be 6.2×10^−6 and 5.873×10^−7 for human serum albumin and ABRAXANE®, respectively.
(§2) The association and dissociation of albumin with AVASTIN® and AVASTIN® with ABRAXANE® were determined. In this experiment, biotinylated AVASTIN® or biotinylated Albumin® was bound to a streptavidin sensor. After albumin or AVASTIN® loading to the sensor, the sensor was exposed to 1 mg/mL of AVASTIN® or 1 mg/mL of ABRAXANE®, respectively. […] The dissociation constant calculated for albumin and AVASTIN® was 6.588×10^−10. The dissociation constant calculated for AVASTIN® and ABRAXANE® in this experiment was 1.698×10^−5.

[1] = Bevacizumab binding of free paclitaxel (Western blot); details: 4 mg bevacizumab with 0.1-2 mg paclitaxel, 30 minutes room temperature
Description: The following was performed to determine if bevacizumab binds free paclitaxel. 4 mg of bevacizumab was incubated with paclitaxel (0.1, 0.5, 1, or 2 mg) for 30 minutes at room temperature.

ABRAXANE® = target: T2, ABRAXANE® (Homo sapiens, UniProt P02768); assay: Association and dissociation of AVASTIN (or IgG) with ABRAXANE (streptavidin sensor); assay type: binding; details: biotinylated AVASTIN on streptavidin sensor, 1 mg/mL ABRAXANE, read-out: dissociation constant
T2 construct: purchased Celgene Corp
Description: as §1, §2
The following was performed to assess protein binding due to deglycosylation of bevacizumab compared to naturally occurring IgG. In order to determine if bevacizumab binding to ABRAXANE® is due to the deglycosylation of the Fe chain of the antibody, the binding kinetics of bevacizumab were compare to naturally produced IgG isolated from human plasma.

ABRAXANE® nanoparticles = target: T3, ABRAXANE® nanoparticles (Homo sapiens, UniProt P02768); assay: Complex formation of labeled therapeutic antibodies with labeled ABRAXANE nanoparticles (flow cytometry); assay type: binding; details: fluorescently labeled, FIG. 14
T3 construct: purchased Celgene Corp
Description: The particles were spun down, washed, and visualized by flow cytometry.

[2] = test system: A375 human melanoma tumor cells; assay: A375 xenograft, ABRAXANE/AVASTIN/cisplatin complexes; details: treated once intravenously
Description: Athymic nude mice were injected with 1×10^6 A375 human melanoma tumor cells. […] Following incubation, the complexes were diluted for mouse injection. Mice were treated once, and tumor growth was monitored for at least 80 days for all mice.

[3] = test system: A375 melanoma tumor cells; assay: A375 proliferation assay (DNA synthesis, EdU); assay type: cell-based, human; details: 100 μg/mL, overnight
Description: After the overnight incubation, cell proliferation was determined by measuring the level of DNA synthesis.
After an overnight incubation, proliferation of the cells was measured by determining the level of DNA synthesis.
Proliferation of A375 melanoma tumor cells in vitro following exposure to various treatments was assessed. […] With reference to FIG. 33, the complexes were made with an ABRAXANE®: AVASTIN® at a 2.5 to 1 ratio. […] The nanoparticles were resuspended in 0.9% saline and added to the wells containing 50,000 A375 cells. The cells were incubated overnight at 37° C. The cells were stained with a thymidine analog, EdU, which incorporates into the DNA as cells proliferate. Cells that are actively proliferating stain positive. The proliferation index was calculated as the % positive cells in treated cells/% positive cells in untreated cells.
After the overnight incubation, the A375 cells were harvested, permeabolized and intracellularly stained with a FITC conjugated anti-EdU antibody. Cell proliferation was determined by DNA synthesis as a percentage of cells, which were FITC positive on a Guava 8HT flow cytometer (Millipore Billerica, Mass.). […] The proliferation index was calculated by dividing the percentage of proliferating cells in treated wells (FITC positive) by the percentage of cells proliferating in the untreated well.

Row | pKd (ABRAXANE®; first experiment, listed as bevacizumab) | pKd (ABRAXANE®; first experiment) | pKd (ABRAXANE®; second experiment) | Molecule | pKd (human serum albumin; biotinylated AVASTIN on streptavidin sensor, 1 mg/mL human serum albumin) | pKd (human serum albumin; biotinylated albumin on streptavidin sensor, 1 mg/mL AVASTIN) | binding of free paclitaxel [1] | complex formation with ABRAXANE nanoparticles (ABRAXANE® nanoparticles) | median survival [2] [days] | cells killed [3] [%]
1 | 6.24 | 6.23 | 4.77 | AVASTIN®: humanized monoclonal antibody that binds to vascular endothelial growth factor A | 5.21 | 9.18 | did not bind free paclitaxel | spontaneously formed complexes with ABRAXANE® nanoparticles |  | 
2 |  |  |  | rituxan: therapeutic monoclonal antibody |  |  |  | spontaneously formed complexes with ABRAXANE® nanoparticles |  | 
3 |  |  |  | N.N.[Cl][Pt][Cl] [cisplatin, cisdiamminedichloroplatinum (II)] |  |  |  |  | 9 | 100
